Assay in all cases: cell-based or functional assay
The target of assay [1] is in-frame fusion between the extracellular domain of 2KIRDL3 (KIR2DL3) and the cytoplasmic ITIM motif of NKIR (pCXND3KIR58NKIR313), expressed in Jurkat cells (human) (UniProt P43628).
Assay [2] deals with CD8-NKIR fusion protein (extracellular domain of CD8 alpha chain fused to the cytoplasmic ITIM motif of NKIR; pCXND3CD8NKIRfull), expressed in F11 Jurkat reporter cells (human) (UniProt P01732).
Assay [3] has as its target CD8-KIR fusion protein (extracellular domain of CD8 alpha chain fused to the cytoplasmic ITIM motif of KIR; pCXND3CD8KIRfull), expressed in F11 Jurkat reporter cells (human) (UniProt P01732).

Sequence of UniProt P43628 (P43628 other isoform, or with tags, fused parts or gaps limits assumed): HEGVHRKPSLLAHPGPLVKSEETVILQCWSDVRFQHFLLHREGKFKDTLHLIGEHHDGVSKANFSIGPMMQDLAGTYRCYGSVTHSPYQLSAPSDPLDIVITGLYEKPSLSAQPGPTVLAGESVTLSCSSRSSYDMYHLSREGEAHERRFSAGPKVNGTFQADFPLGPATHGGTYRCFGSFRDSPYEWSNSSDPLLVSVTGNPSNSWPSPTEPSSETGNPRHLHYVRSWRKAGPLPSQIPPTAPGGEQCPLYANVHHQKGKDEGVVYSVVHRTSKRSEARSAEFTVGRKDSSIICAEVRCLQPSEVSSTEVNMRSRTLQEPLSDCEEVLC

Regarding “GL183 monoclonal antibody (Beckman Coulter)”, the inhibition of luciferase activity (NFAT-luciferase reporter, anti-CD3 stimulated chimeraA10ZEOR12 cells, GL183 1 µg/ml then rat anti-mouse IgG cross-linking) in assay [1] turned out to be 33.3%.
As for “anti-CD8 antibody LT8 (Serotec, MCA1226XZ)”, in assay [2], the degree of reduction of luciferase reporter activity (NFAT-luciferase, 10-hour ConA stimulation, LT8 1.5 µg/ml; clone NKIR#16) turned out to be 21.2% and the degree of reduction of luciferase reporter activity (NFAT-luciferase, 10-hour ConA stimulation, LT8 1.5 µg/ml; clone NKIR#19) amounted to 30.2%. The substance further had a degree of reduction of luciferase reporter activity (NFAT-luciferase, 10-hour ConA stimulation, LT8 1.5 µg/ml) in assay [3] of 16.6%.

The values above are taken from US20070202501A1.
